Patent publication US12338287B2, “Treatment of cancer using a CD33 chimeric antigen receptor” (Novartis AG, priority 2014, dated 2025)

What was measured:
MOLM13 = experiment: NFAT-dependent luciferase reporter activation of JNL cells; type: cell-based; details: JNL cells co-cultured with MOLM13 relative to MOLP8 or GFP JNL cells; 24 hours
From the text: FIGS. 28A, 28B, 28C, and 28D are images showing the ability of individual scFv's targeting hsCD33 to elicit NFAT activity in JNL cells. JNL cells expressing scFv's against hsCD33 were co-cultured with MOLM13 or MOLP8 cell lines, which express hsCD33 or lack hsCD33 cell surface expression, respectively (FIG. 28A; hsCD33, solid green line; isotype control, gray dashed line and shaded area). FIG. 28B depicts the activation of JNL cells expressing an scFv targeting hsCD33 in the presence of MOLM13 (solid lines) or MOLP8 (dashed lines) cells. JNL cells expressing individual scFv's were plated at different effector (i.e. JNL cells) to target (i.e. MOLM13 or MOLP8) ratios and analyzed for the expression of relative luciferase units (RLUs) using the Bright-Glo™ Luciferase Assay on the EnVision instrument 24 hours post-incubation. FIG. 28C is a version of FIG. 28B, depicting the activation of JNL cells in the presence of MOLM13. […]
Individual scFv's targeting hsCD33 were evaluated for their ability to elicit NFAT activity in JNL cells (FIG. 28). […] JNL cells expressing individual scFv's were plated at different effector (i.e. JNL cells) to target (i.e. MOLM13 or MOLP8) ratios and analyzed for the expression of relative luciferase units (RLUs) using the Bright-Glo™ Luciferase Assay on the EnVision instrument 24 hours post-incubation.

[1] = biological target: recombinant Fc-tagged hsCD33 (Homo sapiens, UniProt P20138); experiment: scFv binding to recombinant CD33 by flow cytometry (JNL cells); details: scFv on JNL cells, Fc-tagged hsCD33, PE secondary; FIG. 32
Method: Finally, scFv cross-reactivity to cynomolgus CD33 (cyCD33) was assessed by flow cytometry as depicted in FIG. 32. JNL cells transduced with a lentiviral vector expressing scFv's raised against hsCD33 were incubated with either recombinant Fc-tagged hsCD33 (red line) or cyCD33 (blue line) followed by incubation with an Fc-specific secondary antibody conjugated to phycoerythrin.

recombinant Fc-tagged hsCD33, sequence (P20138 18-259 limits assumed): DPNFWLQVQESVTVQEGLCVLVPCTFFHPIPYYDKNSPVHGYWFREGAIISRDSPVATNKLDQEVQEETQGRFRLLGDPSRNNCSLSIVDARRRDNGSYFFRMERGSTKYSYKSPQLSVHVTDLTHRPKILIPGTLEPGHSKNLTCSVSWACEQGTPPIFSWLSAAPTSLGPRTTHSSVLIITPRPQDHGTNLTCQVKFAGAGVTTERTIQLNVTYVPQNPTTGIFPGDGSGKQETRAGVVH

B1: CD33-UPenn: an scFv based on the sequence of Mylotarg, a monoclonal antibody that binds to the human CD33 antigen (protein)
chain: EIVLTQSPGSLAVSPGERVTMSCKSSQSVFFSSSQKNYLAWYQQIPGQSPRLLIYWASTRESGVPDRFTGSGSGTDFTLTISSVQPEDLAIYYCHQYLSSRTFGQGTKLEIKRGGGGSGGGGSSGGGSQVQLQQPGAEVVKPGASVKMSCKASGYTFTSYYIHWIKQTPGQGLEWVGVIYPGNDDISYNQKFQGKATLTADKSSTTAYMQLSSLTSEDSAVYYCAREVRLRYFDVWGQGTTVTVSS
modifications: left off: small tags and cut ends
NFAT-dependent luciferase activity (RLUs) (MOLM13): capable of triggering NFAT-dependent luciferase activity
Binding of hsCD33 [1]: capable of binding hsCD33
